The data set can be described thus: soluble on expression in E. coli; label from the status in PepcDB or PDB records.
Regarding “MEFNLSALGSAPAAEETYDVVIIGGGPAGLTAGIYAGRAQLKTVIVEKGLPGGQIAQTDEVENYPGFPEGISGPELASRMVRQAEKFGARIVMDEVLGLEKAEGGYLVRGYERNYRARAVIVATGANPRRLGVPGEDKFYGRGVSTCATCDGFFYRDKEVVVVGGGDAAVEEGIFLTKFARKVTLVHRRDELRANKVAQKRAFQNPKMHFLFSHVVTEILGEDQVTGVRLKNLKTGEEYVYPTDGVFVFIGHEPNTAFLKGVVELRPDGYIAVRDEVFTSEPGIFAAGDVADPIYRQLTTSVGAGTRAAMMAERYLAEEAEKVKG”, the “soluble on expression in E. coli” value is “soluble”. In the case of “MEFYPIHILLSKLEEEIAFQQKMATTYLVSPPKYSPEVIGTVSETLRRISADLKLVSLILGELEEVQERDIKEEALILSSESLSLISLLLPAIEKYAPFFLESMKVERKPILEKLEDVMAEIENAIEKLELSSSREIIRSLEELAQSLEISLKMGERILERES” it was “not soluble”; in that of “MEGIMNPYTALPTPQQLLAIEQSVYSSDPFRQGLTPPQMPGDHMHPYGAEPLFHDLDSDDTSLSNLGDCFLATSEAGPLQSRVGNPIDHLYSMQNSYFTS”, “soluble”. Turning to “MEGLLIDYVQPGSIAEELEIEAGDRLVAINGQDLRDIIDFSFYAHDEELALEIVKPSGDHWEAEIERDGDEPLGLVFAPPVPAQCGNKCVFCFVHQLPKGLRRPLYVKDEDYRLSFLYGNYVTLSNIRRGDLDRIVAQRLSPLYISVHATNPALRERLLGRSEILPILDLMRELAAARIVMHSQIVLCPGLNDGVELEKTVRDLAGLHPWVESLAIVPIGLTKHRRGLPALEPVTASYAETFVQNWQPAAERLERELGAPFLFIADEFYIKAGLPFPPLETYGDLPQIENGVGMIPLFLDESERVLKKARKGKPVTVTVVTGESPYRYLAAFLERLSVRTGATFKPVAVHNRLFGESVTVTGLVAGSDIVEELSGRDLGDAVLVPDVMLKEGEGIFLDDLSVDGLGKSLGTRVLVVEATPQGVVDALRRVRSMLEHHHHHH”, the “soluble on expression in E. coli” value is “not soluble”.

On to “MEGRIPPHSLEAEQSVLGAILLDYQVLDEIEGLLPTPEAFYAEAHRKIYAAMQGLRAEGSPVDLVTLAEELSRRGELDGVGGISYLMQLSEATPTAAYAEHYARIVAEKWTLRRLIQAAGEAMRLAYEEAGSLDEILDQAGKRILEVALAQTEVEARSMRELVHETFEHIEALFQNKGETAGVRTGFKELDQLIGTLAPGSLNIIAARPAMGKTAFALTIAQHAALKEGVGVGIYSLEMPAAQLVLRMMCSEARIDMNRVRLGQLSDRDFSRLVDVAGRLSEAPIFIDDTPDLTLMELRARARRLRSQHNVGLIIIDYLQLMSGPGGGQKGENRQQEIAAISRGLKALARELGVPVIALSQLSRAVEARPNKRPMLSDLRESGSIEQDADLVMFIYRDEYYNPHSEKAGIAEIIVGKQRNGPTGTVELQFHAQHVRFNDLAKEP”, for which the “soluble on expression in E. coli” value was “soluble”. As to “MEHKLEDIIAIFNQCFEEEYNTRLVKGGDEPIYLPANDEVPYNAIYFARGFYSSALHEIAHWLVAGKERRKLEDFGYWYEPDGRSEERQRDFEKVEVKPQALEWILATAAGFRYFASADNLNGNPGDTQPFKQAVYEQVKIYAEKGLPKRAETLRKALVAFYSTEDDINLAKFDVTCI”, the “soluble on expression in E. coli” value is reported as “not soluble”. In the case of “MEHPNLEENVGEQDFASNDRFFNSYNIVPRRILQANYDSSLRQMEGYQEEIETDNPINESRGDEAEELENEGCDDRDRCTSRNSIDSEIYENSDEEVYDESMYESEEEYADSPFIIDKMEECLQNHQIGELGSRVMEGLETGTLADVQLEEFCRSRVKPEVTPREFYEELASSGNGDWKKFSMGQFVLSKMKSSKDTAWANTEATVNSLAANLSKANTVGSIVKRVISREYAIEEKDGFPRYNLTNFYNNTTLQGQGAVAQLTSVYVGFLKNLFKPSFKIWLFTYRPSSAYNFDKHFVEYPASVIDTIFGRKLDAFSMEVLGVYLPEDLLVGGCYNVSDASETFLQSLGENASKEVERRRKFRGPARKTCIGAMAAAMKSLRQHHYNAARDTVSYCSARSDCKEHLTWHQLRFYRAHSGKTKEECDLARPDDVMAFCRERAMPRYSLSPNRDATS” it was “soluble”; in that of “MEHQTTRNVILITEGSLQSSLLKDVLETKLGINVLLITPENLASPFVRNQSISAIVLDYSVITDEVFARYMEFKTPNLTGTLEILINCDKSISTDELFVWGALAGIFYTSDDIQTLQTGIDKVLQGDMWFSRKFAQQYITHLRRHSRPINKNVPA”, “not soluble”. Consider “MEIDGGPPPFCGVAVDDSYDKSEQHEYDEVDDSPDSTSLPLPSASRSRSVTPVKDMAAGHEAVPEASDNNEKGDTMTTALSQDEFTGFQNSEIQKEEDDDDDEWGDFGEAVVAAAPIQARPQSPPPSLKMDGFNNEDDDDDDDWGAFDQARPSTDRTESSPNSSRSQEARHQQSLDEWGAFENSNDLKANGDEWQAEFSSASDVPPPPSDTVLENLELLDEMLENVEFWHDGFQEECREEEESPEMDVVDIPALFDSENLVEMVNSFEVERQRDSRLWLSLRLVEEAISLKFDWNNSEIRKNHLKSLKINPVTAKKEPRAMNSFFDTSNLLLPTPIQATTTSSSTESSHDSSATATNPKTSSSSPPSSVIDSPSVPAVDFDWDTSGLTNPMNRASKHLHELSKKCRNLVCSVSTNCINLLKCC”, for which the “soluble on expression in E. coli” value is on record as “not soluble”. On to “MEINENPTSFKGFKILQLSDLHNKSFGNNNNRLVKKIIGENPDIIVMTGDMVNAKDNDFEVFINLAEQISKSFDVYYIVGNHEQDLNEDKRKILMDKLSEIGIRVLDNEKVTISRGAESINLYGLWFNLRYYKDLKNEYTKDVFFGTKQIQSILGDLDTDSYNILLTHNPLYADTYSNWGADLTLSGHIHGGMIRIPFVGGLLSPEREFFPEYDAGKYQVNGKILIVNRGLGNGDFGIRVFNPPEISVIMLSNLEHHHHHH”, for which the “soluble on expression in E. coli” value is reported as “not soluble”. For “MEINIFNTNKKYDVIYADPPWRYNDRKCNGACEHHYDTMTLEEIKKLPIKELCEKDCVLFLWTTYPMLKEALEVMEAWGFKYKSIAFQWIKLNRSGNGKFFGLGRWTRGNTEPCLLAVKGKPSRKSNSVSQLIEYPLGKHSAKPPITRDKIKELMGEECKCLELFARNNIEGWDCWGNEVGKMDEVILEHHHHHH”, the “soluble on expression in E. coli” value is recorded as “soluble”. In the case of “MEKDKQQLSVEVARLYYQSDYSQQEIANKLNISRPTISRLLKYAKEKGFVQISIADPFADLDNVGNLLKEKYNLLEAHVVFSPVPEYATITEYISKYAAEYMEKTVKNGDIVGVSWGMTMYEIARKIVPQHVKGVEVVQLKGGISHSSVNTYANETIALFADAFQTTPRNLPLPVIFDNAVTKELVEQDRHIHHIIEMGKQANIAIFTVGTVRDEALLFRLGYFDKDETNLLKKQSVGDICSRFFDGDGNISSEEINKRTIGIELEELKLKKRSILVAGGNRKIKAIDGALRGGYANVLIIDQHTAKELLHYQKG” it was “not soluble”; in that of “MEKHPGKLFYRLSRLAPGDALPLKRGPKAKVYANPLETQALPPFRQDGGPPLFRAMAHLRPLLPEVGASLTLKDLSQVLYPLAEREGRRGFPSAGEAYPLEAYLVVRRVEGVFPGVYHYFPREHQLFQIASKVEEAAWAEALMGVALDRAAVLLVLTLLPERSEALFGLRGYRYALLEAGYAAGLVLLAAVGQGLAAYPAETFHDEGVARLLGLPEGEYPGVVVVLGR”, “soluble”. In the case of “MEKIAILVDVQNVYYTCREQYGRHFDYNQFWSQVTQNRTVVKANAYAIASKDPQQRQFHHILRGIGFEVMLKPFIQRSDGSAKGDWDVGIALDGYELAQEVDTVVLVSGDGDFEPLVTRIAQRFQVKVEVYGVPKLTAQHLIDVASQFHPIEHRLLL” it was “not soluble”; in that of “MEKLKEFRGIKEHLGVFREAVKDAERIGFAGVPGVCTPFAQLFAYAVRDKDNIFIPNTDFSKARKLEVTEYGVELGEISPGNVDVLVLLGGLSMPGIGSDIEDVKKLVEDALEEGGELMGLCYMDMFARAGWYELLDFDCVINADIDGYVLRG”, “soluble”; in that of “MEKNLYDTNKLIELYKNKESMSGYTTILNVIEFPKALEFNLTVLYLSKSDYRLAIKISTELLKIGEPVPAVYTLISAIANKQRFKGCNAGQTFYAS”, “not soluble”.

For “MEKQVRVRYAPSPTGHLHIGNARTALFNYLFARHQDGKFIIRIEDTDVKRNVAGGEESQLKYLKWLGMDWDEGVDVGGEFGPYRQTERLDIYKKLYEDLLERGLAYKCYMTEEELEAEREGQIARGETPRYAGNHRDLTEAQVKEFEAEGRIPSIRFRVPADRDYTFKDIVKDEVAFHSNDFGDFVIVKKDGIPTYNFAVAVDDHLMEITHVLRGDDHISNTPKQMMIYEAFGWDIPQFGHMTLIVNESRKKLSKRDESIIQFIEQYKELGYLPEAIFNFIALLGWSPVGEEEIFSQEEFIKMFDAARLSKSPALFDSQKLKWMNNQYMKKQDLDTVVELSLPHLVKAGRIGETLSEQEQAWIRDVIALYHEQMSFGAEIVELSEMFFKDHVDYEEEGQEVLKGEQVPEVLRAFAGQVEALEAMEPAAIKAAIKAVQKETGHKGKNLFMPIRVATTGQTHGPELPNAIALLGKEKVLNRLQKVIG”, the “soluble on expression in E. coli” value is listed as “soluble”. For “MEKRELKVKTLSEVRDYEIPILKETVFDIFGGLPQAFIGISGEAGAGKTQTLMRLMADIAKREPVLVVLTEQSPHRWKAIFKKYDTNHENVRVVFKYYMDQDFIKELSQREERIIVIDSISGAVSEQKARQVAKDLRSLVEWKNKWLVGALQVRKEGVAGGEGVEHMIEVSYEITYFQLKPQNKWLYEKLKPFGYEVGDYVRLIRNTFDKVRGVQNTNLVVVDISKKNGILEFRELGRKEGEVNHE”, the “soluble on expression in E. coli” value is “not soluble”. For “MEKVYGLIGFPVEHSLSPLMHNDAFARLGIPARYHLFSVEPGQVGAAIAGVRALGIAGVNVTIPHKLAVIPFLDEVDEHARRIGAVNTIINNDGRLVGYNTDGLGYVQALEEEMNITLDGKRILVIGAGGGARGIYFSLLSTAAERIDMANRTVEKAERLVREGDERRSAYFSLAEAETRLAEYDIIINTTSVGMHPRVEVQPLSLERLRPGVIVSDIIYNPLETKWLKEAKARGARVQNGVGMLVYQGALAFEKWTGQWPDVNRMKQLVIEALRR”, the “soluble on expression in E. coli” value is recorded as “soluble”. In the case of “MELDVFVGNTTVLDEDIYQLWLDGHSVSDVVRQRMDAGVLLECEASPDVLQSDTIDQFRTFQMCERLLQSPSKVANQLLFQIPSDQQAMLIERYYEFDSVFAREVLGKKLSKGTKKDLDDVSAKTGIALKSCRRQFDNFKRVFKVVEELKGPLVENIQRHFLLSDDLARDYATIVFFANSRFETGKRKLQYLSFQDFAFCAGQLISYWTVGAVDNMIEDMDVDLEKDFLHDLKDLKVLVNDKDLLDQHKSLVCGQLRGKIKVFNEMEASFKNLSRALVNIASKLTHAKDVRDLFIDLVEKFIEPCRSDKWTSGDLRLFLTHYSTSVHTLEAFRHQVIWDRYMGVIKSCILKMYHD”, the “soluble on expression in E. coli” value is given as “soluble”. As for “MELEFKCSDVGVWKEALSSYDSRIESLNKPELVSLDQFYRIKLPCLLHDRDPNPYLTTSELSQLMKWKLSRGKWRPRLLDFVSSLDDSVVKSASEKAFKSLPDISKAVKELTVLKGVGAATASAVLAAYAPDIAPFMSDEAMEVALGNSKDYSLKQYLLFATKLQDKAKELKLKGEWDGPSDIERALWSCTVRAKSQPEKSSSGKKRKR”, the “soluble on expression in E. coli” value was “not soluble”. As to “MELKQFKIAVLPLRDKLLSYARKLTDDHSDAEDAVQEVMLKLWNLRPKLDEYHSIEALAMTMTHHTCMDILRGKHPDNLSLDSVQAASPVATPERLLEEKDEFSLMRHIISTLPPLQQTILRMKDVEEYETEEIAEITGCSSEAIRSNLSRARKKVRDIYLQTIQQRKRRNEA”, the “soluble on expression in E. coli” value is “not soluble”.

These data come from the DeepSol protein solubility set.
